Source: patent publication US20190330334A1 (KAO, published 2019)
Ends that are not written are not given here.

Tests used:
[1] = molecular target: T1, PEGylated N-terminus 15 amino acids of active GIP (GIP(1-15)), antigen (1) for measurement (also: PEGylated, site not given here); test: ELISA, immobilized antigen, hybridoma culture supernatant
T1 construct: also called PEGylated GIP(1-15)
T1 peptide: YAEGTFISDYSIAMD
Protocol: (§1) The reaction between the hybridoma culture supernatant and the antigen (1) and (2) for measurement was evaluated by ELISA using immobilized antigen (1) and (2), and hybridomas that are positive for the antigen (1) and negative for the antigen (2) were selected as anti-active GIP monoclonal antibody-producing hybridomas.

[2] = molecular target: T2, PEGylated N-terminus 13 amino acids of inactive GIP (GIP(3-15)), antigen (2) for measurement (also: PEGylated, site not given here); test: as above
T2 construct: Immobilized on the ELISA plate; also called PEGylated GIP(3-15)
T2 peptide: EGTFISDYSIAMD
Protocol: as §1

inactive GIP, GIP(3-42) = molecular target: T3, inactive GIP, GIP(3-42); test: sandwich ELISA, anti-total GIP capture antibody, biotinylated m1 as detection antibody at 1 ug/mL
T3 peptide: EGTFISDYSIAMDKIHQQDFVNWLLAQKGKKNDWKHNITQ
Protocol: The reactivity between the monoclonal antibody prepared in Production Example 1 and active GIP was confirmed by ELISA. The amino group of the anti-active GIP monoclonal antibody was biotinylated with NH2 group biotinylation kit (manufactured by Dojindo Laboratories). ELISA was performed using the produced biotinylated anti-active GIP monoclonal antibody at 1 μg/mL instead of a detection antibody, GIP detection antibody (biotinylated anti-total GIP monoclonal antibody), included in Human (total) GIP ELISA kit (manufactured by EMD Millipore Corporation). A […] dilution series of GIP(1-42) or GIP(3-42) was prepared in 6 steps (8.2 to 2000 pg/mL) with a 2000 pg/mL solution as the highest concentration. By using an anti-total GIP monoclonal antibody (included in Human GIP (total) ELISA kit manufactured by EMD Millipore Corporation) as a capture antibody, the biotinylated anti-active GIP monoclonal antibody as a detection antibody, and a peroxidase-streptavidin conjugate for detection, sandwich ELISA was conducted to prepare a calibration curve with GIP concentration on the X-axis and 450 nm-590 nm absorbance on the Y-axis (FIG. 1).

binding result [1]: binds | binding result [2]: no binding | binding result (inactive GIP, GIP(3-42)): no binding (tested: 2000 pg/mL)
B1: anti-active GIP monoclonal antibody produced by hybridoma 9B9H5-B9 line (Production Example 1) (antibody, V domains shown)
VH: QVQLQQPGAELVKPGASVKLSCKASGYTFTSFWMHWVIQRPGQGLEWIGEMNPSDGRTHFNEKFKTKATLTIDTSSNTAYMELNSLTSEDSAVYYCARRMEDWGQGTLVTVSA
VL: DIKMTQSPSSMYASLGERVTITCKASQDINSYLGWFQQKPGKSPKTLIYGANRLVDGVPSRFSGSGSGQDYSLTISSLEYDDMGIYYCLQYDEFPLTFGAGTKLELKR
notes: also called anti-active GIP antibody; anti-GIP antibody
